Results on four molecules are retold here after patent US20020045158, “Cells for drug discovery” (published 2002).

For one data set, the system named is Zif268. The data set is described as follows: EMSA. To be noted: target sequence not given; literature 2-30 nM; cited from earlier work.
Data set [1] relates to SP-1 zinc finger domain (Homo sapiens). The data set is described as follows: EMSA. The conditions noted are these: target sequence not given. In general terms: In EMSA bound probe runs differently from free probe, usually more slowly.
Another data set has as its target T1, VEGF3a/1 six-finger ZFP (artificial (human SP-1 backbone)).
T1 chain: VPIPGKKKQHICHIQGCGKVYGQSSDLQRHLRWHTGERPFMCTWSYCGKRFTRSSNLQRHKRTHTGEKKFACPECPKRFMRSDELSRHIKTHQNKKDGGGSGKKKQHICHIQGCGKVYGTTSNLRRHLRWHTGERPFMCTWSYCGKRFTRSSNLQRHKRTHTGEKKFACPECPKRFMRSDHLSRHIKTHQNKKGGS
Nature of the data set: competition; half-life of complex relative to VEGF1, EMSA competition at 37 C. The conditions noted are these: tags: MBP N-terminal fusion; label: 5' 32P. The method, then: For the EMSA studies, 20 μl binding reactions contained 10 fmole (0.5 nM) 5′ ³²P-labeled double-stranded target DNA, 35 mM Tris HCl (pH 7.8), 100 mM KCl, 1 mM MgCl₂, 5 mM dithiothreitol, 10% glycerol, 20 μg/ml poly dI-dC, 200 μg/ml bovine serum albumin, and 25 μM ZnCl₂. Protein was added as one fifth volume from a 3-fold dilution series. Binding was allowed to proceed for 60 min at either room temperature or 37° C. Polyacrylamide gel electrophoresis was carried out at room temperature or 37° C. using precast 10% or 10-20% Tris-HCl gels (BioRad) and standard Tris-Glycine running buffer. The room temperature assays yielded an apparent Kd for this VEGF3a/1 protein of approximately 1.5 nM. Thus, the 18-bp binding ZFP bound with high affinity to its target site. […] When binding and electrophoresis were performed at 37° C., the apparent Kd of VEGF3a/1 was approximately 9 nM when tested against the 18-bp target, compared to a Kd of 40 nM for VEGF1 tested against its target.
The apparent Kd is a useful measure of the affinity of a protein for its DNA target. However, for a DNA binding site either in vitro or in vivo, its occupancy is determined to a large extent by the off-rate of the DNA-binding protein. This parameter can be measured by competition experiments. The conditions for EMSA were as described above; binding and electrophoresis were performed at 37° C. […]

For another data set, the target named is T2, ZFP3A-VP16 / KRAB-ZFP3A (artificial, UniProt P08047).
T2 chain: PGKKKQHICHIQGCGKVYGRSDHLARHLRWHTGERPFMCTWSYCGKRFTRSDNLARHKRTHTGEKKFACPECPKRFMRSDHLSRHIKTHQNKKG
The data set is described as follows: cell_activity; VP16 fusion on cotransfected reporter; KRAB fusion lowered hKCa4 conductance to 1.0 nS vs 10.0 for empty vector. The conditions noted are these: tags: VP16 or KRAB fusion.

Take Zif268 target site: the Kd – broadly, the constant that tells how readily two partners part at equilibrium – in the data set on Zif268 was 60 nM.

In data set [1], SP-1 target site came in with a Kd of 65 nM.

B1: VEGF 18-bp target JVF9/JVF10 (dsDNA)
DNA 1: AGCGAGCGGGGAGGATCGCGGAGGCTTGGGGCAGCCGGGTAG
DNA 2: CGCTCTACCCGGCTGCCCCAAGCCTCCGCGATCCTCCCCGCT
In the case of B1, the binding signal in the data set with VEGF3a/1 six-finger ZFP is > 10 fold.

B2: hKCa4 target site (dsDNA)
DNA 1: GGGGAGGGC
DNA 2: GCCCTCCCC
Turning to B2, in the data set with ZFP3A-VP16 / KRAB-ZFP3A, the activity is > 5 fold activation.
